Reference: IntAct's records for PubMed 28712572

Biological target: gbrap_human GABARAP (UniProt O95166)
Sequence (O95166 whole entry): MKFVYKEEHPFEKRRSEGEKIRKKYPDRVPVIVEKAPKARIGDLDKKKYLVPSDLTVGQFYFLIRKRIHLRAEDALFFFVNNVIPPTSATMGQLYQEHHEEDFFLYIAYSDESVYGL

| Substance | effect of a mutation on the interaction |
| --- | --- |
| Pericentriolar material 1 protein (Homo sapiens), Q15154 E1960Q | with no effect |
| Pericentriolar material 1 protein (Homo sapiens), Q15154 E1960R | with no effect |
| Pericentriolar material 1 protein (Homo sapiens), Q15154 E1960S | with no effect |
| Pericentriolar material 1 protein (Homo sapiens), Q15154 E1960T | with no effect |
| Pericentriolar material 1 protein (Homo sapiens), Q15154 E1960V | decreasing interaction strength |
| Pericentriolar material 1 protein (Homo sapiens), Q15154 E1960W | with no effect |
| Pericentriolar material 1 protein (Homo sapiens), Q15154 E1960Y | with no effect |
| Pericentriolar material 1 protein (Homo sapiens), Q15154 E1961A | with no effect |
| Pericentriolar material 1 protein (Homo sapiens), Q15154 E1961C | with no effect |
| Pericentriolar material 1 protein (Homo sapiens), Q15154 E1961D | with no effect |
| Pericentriolar material 1 protein (Homo sapiens), Q15154 E1961F | with no effect |
| Pericentriolar material 1 protein (Homo sapiens), Q15154 E1961G | with no effect |
| Pericentriolar material 1 protein (Homo sapiens), Q15154 E1961H | with no effect |
| Pericentriolar material 1 protein (Homo sapiens), Q15154 E1961I | with no effect |
| Pericentriolar material 1 protein (Homo sapiens), Q15154 E1961K | disrupting interaction strength |
| Pericentriolar material 1 protein (Homo sapiens), Q15154 E1961L | with no effect |
| Pericentriolar material 1 protein (Homo sapiens), Q15154 E1961M | decreasing interaction strength |
| Pericentriolar material 1 protein (Homo sapiens), Q15154 E1961N | with no effect |
| Pericentriolar material 1 protein (Homo sapiens), Q15154 E1961P | decreasing interaction strength |
| Pericentriolar material 1 protein (Homo sapiens), Q15154 E1961Q | with no effect |
| Pericentriolar material 1 protein (Homo sapiens), Q15154 E1961R | decreasing interaction strength |
| Pericentriolar material 1 protein (Homo sapiens), Q15154 E1961S | with no effect |
| Pericentriolar material 1 protein (Homo sapiens), Q15154 E1961T | with no effect |
| Pericentriolar material 1 protein (Homo sapiens), Q15154 E1961V | decreasing interaction strength |
| Pericentriolar material 1 protein (Homo sapiens), Q15154 E1961W | with no effect |

| Substance | effect of a mutation on the interaction |
| --- | --- |
| Pericentriolar material 1 protein (Homo sapiens), Q15154 E1961Y | with no effect |
| Pericentriolar material 1 protein (Homo sapiens), Q15154 E1967A | with no effect |
| Pericentriolar material 1 protein (Homo sapiens), Q15154 E1967C | with no effect |
| Pericentriolar material 1 protein (Homo sapiens), Q15154 E1967D | with no effect |
| Pericentriolar material 1 protein (Homo sapiens), Q15154 E1967F | with no effect |
| Pericentriolar material 1 protein (Homo sapiens), Q15154 E1967G | with no effect |
| Pericentriolar material 1 protein (Homo sapiens), Q15154 E1967H | with no effect |
| Pericentriolar material 1 protein (Homo sapiens), Q15154 E1967I | with no effect |
| Pericentriolar material 1 protein (Homo sapiens), Q15154 E1967K | with no effect |
| Pericentriolar material 1 protein (Homo sapiens), Q15154 E1967L | with no effect |
| Pericentriolar material 1 protein (Homo sapiens), Q15154 E1967M | with no effect |
| Pericentriolar material 1 protein (Homo sapiens), Q15154 E1967N | with no effect |
| Pericentriolar material 1 protein (Homo sapiens), Q15154 E1967P | with no effect |
| Pericentriolar material 1 protein (Homo sapiens), Q15154 E1967Q | with no effect |
| Pericentriolar material 1 protein (Homo sapiens), Q15154 E1967R | with no effect |
| Pericentriolar material 1 protein (Homo sapiens), Q15154 E1967S | with no effect |
| Pericentriolar material 1 protein (Homo sapiens), Q15154 E1967T | with no effect |
| Pericentriolar material 1 protein (Homo sapiens), Q15154 E1967V | with no effect |
| Pericentriolar material 1 protein (Homo sapiens), Q15154 E1967W | with no effect |
| Pericentriolar material 1 protein (Homo sapiens), Q15154 E1967Y | with no effect |
| Pericentriolar material 1 protein (Homo sapiens), Q15154 F1963A | disrupting interaction strength |
| Pericentriolar material 1 protein (Homo sapiens), Q15154 F1963C | disrupting interaction strength |
| Pericentriolar material 1 protein (Homo sapiens), Q15154 F1963D | disrupting interaction strength |
| Pericentriolar material 1 protein (Homo sapiens), Q15154 F1963E | disrupting interaction strength |
| Pericentriolar material 1 protein (Homo sapiens), Q15154 F1963G | disrupting interaction strength |
